# Reference: patent US20260176627A1 (University of Washington, published 2026)
# Molecular target: T1, NLS-λN-GFP1-10
# T1 construct: also called LambdaN-GFP1-10; second protein of pCMV::GFP11-NLS-MCP-IRES-NLS-λN-GFP1-10; not shown: my translati
# Test: split-GFP complementation, fluorescence in transfected HEK293T cells
binder,measurement,value
"GFP11-NLS-MCP (other, not shown: small tags and cut ends, linker and NLS are known only from the DNA; also called first protein of pCMV::GFP11-NLS-MCP-IRES-NLS-λN-GFP1-10; Split-GFP-RNAadaptor (one of the pair)) MRDHMVLHESVNAAGITASNFTQFVLVDNGGTGDVTVAPSNFANGVAEWISSNSRSQAYKVTCSVRQSSAQKRKYTIKVEVPKVATQTVGGVELPVAAWRSYLNMELTIPIFATNSDCELIVKAMQGLLKDGNPIPSAIAANSGLY",binding result,binds
